Experimental data published in patent US12180485B2, “Repressible control of gene expression” (TRUSTEES OF BOSTON UNIVERSITY, priority 2020, dated 2024).
Entries after “also recorded” stand apart in the source; their conditions may differ.

Columns and labels:
mCherry [1] = test: Split Cas13 (559/560) or WTCas13 driven by inducible promoters (NFkB, CAGA12, AP1), mCherry knockdown; assay type: cell-based; conditions: NFkB promoter with TGFbeta; CAGA12 promoter with TNFalpha; AP1 promoter with PMA
Source text: FIG. 13A-13E is a series of schematics and graphs showing the coupling of split Cas13 (559/560) expression to inducible promoters responsive to endogenous signals. Inducible promoters responsive to endogenous signals drove split Cas13 expression for the construction of AND logic gate. FIG. 13A is a schematic showing the transfection compositions of endogenous signal-responsive promoters (e.g., “short response elements” and “miniP”) driving split Cas13d's. […] FIG. 13E is a series of bar graphs showing that orthogonality among the 3 inducible promoters tested. In FIG. 13B-13D, the left-right order of the bars for each design is the same as the top-down order of the legend for each bar graph, and “NT-gRNA” is non-target gRNA. In FIG. 13E, the left-right order of the bars is the same as the top-down order of the legend for each bar graph.

NFkB promoter = test: Orthogonality of inducible promoters driving fluorescent proteins; assay type: cell-based; conditions: PMA is the inducer for AP1 promoter
Source text: Although the propensity of many Cas13 splits to reconstitute spontaneously has led to leaky knockdown activity when coupled with CID systems, transcriptional control of such splits creates an AND gate logic. Inducible promoters (IP) such as WNT, NFkB, CAGA12, and AP1 promoters are available to orthogonally drive split Cas13 expression. In such design, there can only be target knockdown activity when there is input for both promoters. After verification for the ability of these promoters to inducibly drive gene expression using fluorescent proteins (see e.g., FIG. 13E), experiments were conducted with split RfxCas13d pieces and WT RfxCas13d. The chosen split was 559/560 as this split pair is able to achieve target knockdown efficiency more than 80%, and its knockdown ability surpasses that of WT RfxCas13d when coupled with the GIB CID system. Inducible promoter driving the WT Cas13 serves as the positive control (see e.g., FIG. 13A middle panel; see e.g., setting 3 in FIG. 13B, corresponding to “IP-WT” in FIG. 13B-13D). The highest inducibility among the 3 IPs was 30% inducibility with the promoter CAGA12. […] As such, the aforementioned constructs (e.g., split recombinase and IPs) can be integrated into AAVS1 sites and their performance evaluated.

[2] = system: mCherry expression in HEK 293 FT cells; test: Cas13d/gRNA mCherry knockdown, transient transfection, flow cytometry; assay type: cell-based; conditions: mCherry expression at various levels
Source text: FIG. 4A-4D is a series of schematics and graphs showing that Cas13d achieved robust transgene knockdown in HEK 293 FT cells. FIG. 4A is a schematic showing the necessary components for the CRISPR/Cas13d system. […] Minimizing either one component led to the abolishment of knockdown ability.
In order to gain better understanding of the activity of the Cas13 effector/gRNA system, it was first examined how variation in the expression of each components (e.g., target, guide, and/or effector protein) relate to the knockdown efficiency of the system. HEK 293 FT cells were transiently transfected with the components of the system, and expression of the targeted gene, mCherry, was tested using flow cytometry. […] Another important feature of Cas13d is its ability to process pre-mature gRNA arrays and achieve multiplexed gene targeting. To verify this, pre-gRNAs with spacer regions flanked by 2 direct repeat sequences were transfected with Cas13d into HEK 293 FT cells. Target gene knockdown was later quantified and compared to that by mature gRNAs.

[3] = system: bystander fluorescent proteins (GFP, BFP, iRFP); test: Collateral cleavage of bystander fluorescent proteins by Cas13d during mCherry on-target knockdown; assay type: cell-based
Source text: FIG. 5A-5C is a series of schematics and graphs showing collateral activity of Cas13d. […] As the plasmid dosage of the bystander fluorescent protein decreased, bystander expression was knocked down at a higher level.
The green fluorescent protein (GFP) was used initially as a transfection marker and as a non-targeted gene expression control. […] GFP was knocked down by Cas13d only when mCherry was present, confirming that this is a collateral activity instead of a result from non-specific gRNA design.

[4] = system: mCherry reporter and endogenous transcripts in HEK293T cells; conditions: cited from earlier work
recombinase reporter = test: Split recombinases (Cre, Flp, PhiC, vCre) with tandem or single CaffVHH, recombinase reporters, caffeine induction; assay type: cell-based; conditions: 48 hours of 100 uM caffeine
mCherry [5] = test: mCherry knockdown by inducible split RfxCas13d (ON switch) in transfected HEK 293 FT cells, flow cytometry; assay type: cell-based
HLA-A2 = test: Endogenous gene knockdown: HLA-A2 antibody staining of HEK 293FT cells transfected with B2M targeting gRNA, flow cytometry; assay type: cell-based; conditions: RAP inducible split pair, compared with WT RfxCas13

TNFalpha
mCherry knockdown by split Cas13d or WTCas13 expressed from inducible promoter (mCherry [1]): induced mCherry knockdown

CCCCCCCCCCCCCC(=O)O[C@@H]1[C@@H](C)[C@@]2(O)[C@@H](C=C(CO)C[C@]3(O)C(=O)C(C)=C[C@@H]23)[C@@H]2C(C)(C)[C@]12OC(C)=O [PMA, reference compound]
mCherry knockdown by split Cas13d or WTCas13 expressed from inducible promoter (mCherry [1]): induced mCherry knockdown | activation of NFkB inducible promoter (NFkB promoter): turned on

B1: Cas13d: type VI-D CRISPR-associated RNA-guided ribonuclease Cas13d Ruminococcus flavefaciens, SEQ ID NO: 1 (protein, listed as Ruminococcus flavefaciens)
chain: IEKKKSFAKGMGVKSTLVSGSKVYMTTFAEGSDARLEKIVEGDSIRSVNEGEAFSAEMADKNAGYKIGNAKFSHPKGYAVVANNPLYTGPVQQDMLGLKETLEKRYFGESADGNDNICIQVIHNILDIEKILAEYITNAAYAVNNISGLDKDIIGFGKFSTVYTYDEFKDPEHHRAAFNNNDKLINAIKAQYDEFDNFLDNPRLGYFGQAFFSKEGRNYIINYGNECYDILALLSGLRHWVVHNNEEESRISRTWLYNLDKNLDNEYISTLNYLYDRITNELTNSFSKNSAANVNYIAETLGINPAEFAEQYFRFSIMKEQKNLGFNITKLREVMLDRKDMSEIRKNHKVFDSIRTKVYTMMDFVIYRYYIEEDAKVAAANKSLPDNEKSLSEKDIFVINLRGSFNDDQKDALYYDEANRIWRKLENIMHNIKEFRGNKTREYKKKDAPRLPRILPAGRDVSAFSKLMYALTMFLDGKEINDLLTTLINKFDNIQSFLKVMPLIGVNAKFVEEYAFFKDSAKIADELRLIKSFARMGEPIADARRAMYIDAIRILGTNLSYDELKALADTFSLDENGNKLKKGKHGMRNFIINNVISNKRFHYLIRYGDPAHLHEIAKNEAVVKFVLGRIADIQKKQGQNGKNQIDRYYETCIGKDKGKSVSEKVDALTKIITGMNYDQFDKKRSVIEDTGRENAEREKFKKIISLYLTVIYHILKNIVNINARYVIGFHCVERDAQLYKEKGYDINLKKLEEKGFSSVTKLCAGIDETAPDKRKDVEKEMAERAKESIDSLESANPKLYANYIKYSDEKKAEEFTRQINREKAKTALNAYLRNTKWNVIIREDLLRIDNKTCTLFRNKAVHLEVARYVHAYINDIAEVNSYFQLYHYIMQRIIMNERYEKSSGKVSEYFDAVNDEKKYNDRLLKLLCVPFGYCIPRFKNLSIEALFDRNEAAKFDKEKKKVSGNS
mCherry knockdown efficiency [2]: around 80% | effect on bystander iRFP expression ([3]; mCherry on-target knockdown by Cas13d): least disturbed; also recorded: minimally affected | effect on bystander BFP expression ([3]; mCherry targeting Cas13d system): strongly affected | effect on bystander GFP expression ([3]; mCherry targeting Cas13d system, mCherry present): knocked down along with mCherry | knockdown efficiency ([4]; HEK293T cells, mCherry reporter and endogenous transcripts): 80-95% | knockdown of mCherry and endogenous gene expression ([4]; mammalian cells): 85-90%

B2: Flp split 374/375: split Flp, aa 1-374 / 375-423 of SEQ ID NO: 60, with tandem or single CaffVHH (protein, listed as Saccharomyces cerevisiae)
chain: MSQFDILCKTPPKVLVRQFVERFERPSGEKIASCAAELTYLCWMITHNGTAIKRATFMSYNTIISNSLSFDIVNKSLQFKYKTQKATILEASLKKLIPAWEFTIIPYNGQKHQSDITDIVSSLQLQFESSEEADKGNSHSKKMLKALLSEGESIWEITEKILNSFEYTSRFTKTKTLYQFLFLATFINCGRFSDIKNVDPKSFKLVQNKYLGVIIQCLVTETKTSVSRHIYFFSARGRIDPLVYLDEFLRNSEPVLKRVNRTGNSSSNKQEYQLLKDNLVRSYNKALKKNAPYPIFAIKNGPKSHIGRHLMTSFLSMKGLTELTNVVGNWSDKRASAVARTTYTHQITAIPDHYFALVSRYYAYDPISKEMIAL
modifications: split with 375-423; CaffVHH fusions
induced recombination, tandem CaffVHH compared to single CaffVHH (recombinase reporter): comparable induced recombination, if not better

B3: 565/566: RfxCas13d split between residues 565/566; N and C fragments plain or fused to CID domains (protein)
chain 1: IEKKKSFAKGMGVKSTLVSGSKVYMTTFAEGSDARLEKIVEGDSIRSVNEGEAFSAEMADKNAGYKIGNAKFSHPKGYAVVANNPLYTGPVQQDMLGLKETLEKRYFGESADGNDNICIQVIHNILDIEKILAEYITNAAYAVNNISGLDKDIIGFGKFSTVYTYDEFKDPEHHRAAFNNNDKLINAIKAQYDEFDNFLDNPRLGYFGQAFFSKEGRNYIINYGNECYDILALLSGLRHWVVHNNEEESRISRTWLYNLDKNLDNEYISTLNYLYDRITNELTNSFSKNSAANVNYIAETLGINPAEFAEQYFRFSIMKEQKNLGFNITKLREVMLDRKDMSEIRKNHKVFDSIRTKVYTMMDFVIYRYYIEEDAKVAAANKSLPDNEKSLSEKDIFVINLRGSFNDDQKDALYYDEANRIWRKLENIMHNIKEFRGNKTREYKKKDAPRLPRILPAGRDVSAFSKLMYALTMFLDGKEINDLLTTLINKFDNIQSFLKVMPLIGVNAKFVEEYAFFKDSAKIADELRLIKSFARMGEPIADARRAMYIDAIRILGTNLSYDELK
chain 2: ALADTFSLDENGNKLKKGKHGMRNFIINNVISNKRFHYLIRYGDPAHLHEIAKNEAVVKFVLGRIADIQKKQGQNGKNQIDRYYETCIGKDKGKSVSEKVDALTKIITGMNYDQFDKKRSVIEDTGRENAEREKFKKIISLYLTVIYHILKNIVNINARYVIGFHCVERDAQLYKEKGYDINLKKLEEKGFSSVTKLCAGIDETAPDKRKDVEKEMAERAKESIDSLESANPKLYANYIKYSDEKKAEEFTRQINREKAKTALNAYLRNTKWNVIIREDLLRIDNKTCTLFRNKAVHLEVARYVHAYINDIAEVNSYFQLYHYIMQRIIMNERYEKSSGKVSEYFDAVNDEKKYNDRLLKLLCVPFGYCIPRFKNLSIEALFDRNEAAKFDKEKKKVSGNS
performance after NES/NLS compartmentalization (mCherry [5]; GIB induced split pairs, NES on one moiety, NLS on the other): high inducibility with minimal leakiness | performance of reversed CID orientation versus original orientation (mCherry [5]; GIB: N ss-GAI/GID-ss C, ABA: N ss-PYL/ABI-ss C): stronger inducibility and weaker leakiness | knockdown across the various CID systems (mCherry [5]; split pairs coupled with CID domains, with inducer): efficient knockdown; also recorded: consistently strong drug-induced knockdown | decrease in HLA-A2 expression level (HLA-A2): comparable decrease in HLA-A2 expression level
